B1: 101416-A05 (protein)
chain: MALPVTALLLPLALLLHAARPQSVLTQPPSVSGAPGQRVTISCTGSSSNIGAGFDVHWYQQLPGTAPKLLIYGNSNRPSGVPDRFSGSKSGTSASLAITGLQAEDEADYYCQSYDSSLSGYVFGTGTKVTVLGLEEQKLISEEDLGSGEDLKNVFPPEVAVFEPSKAEIAHTQKATLVCLATGFYPDHVELSWWVNGKEVHSGVCTDPQPLKEQPALNDSRYCLSSRLRVSATFWQNPRNHFRCQVQFYGLSENDEWTQDRAKPVTQIVSAEAWGRADCGITSASYHQGVLSATILYEILLGKATLYAVLVSALVLMAMVKRKDSRGRAKRSGSGATNFSLLKQAGDVEENPGPTSMDWIWRILFLVGAATGAHSFEQVQLVQSGAEVKKPGASVKVSCKASGYTFTDYYMHWVRQAPGQRLEWMGWINPNSGGTNYAQKFQDRITVTRDTSSNTGYMELTRLRSDDTAVYYCARSPYSGVLDKWGQGTLVTVSSTREQKLISEEDLGSGIQNPDPAVYQLRDSKSSDKSVCLFTDFDSQTNVSQSKDSDVYITDKCVLDMRSMDFKSNSAVAWSNKSDFACANAFNNSIIPEDTFFPSSDVPCDVKLVEKSFETDTNLNFQNLSVIGFRILLLKVAGFNLLMTLRLWSSRAKRSGSGVKQTLNFDLLKLAGDVESNPGPSRGHMTEYKPTVRLATRDDVPRAVRTLAAAFADYPATRHTVDPDRHIERVTELQELFLTRVGLDIGKVWVADDGAAVAVWTTPESVEAGAVFAEIGPRMAELSGSRLAAQQQMEGLLAPHRPKEPAWFLATVGVSPDHQGKGLGSAVVLPGVEAAERAGVPAFLETSAPRNLPFYERLGFTVTADVEVPEGPRTWCMTRKPGA
modifications: Synthetic Immune Receptor (SIR)
B2: 012517-Q12 (protein)
chain: MALPVTALLLPLALLLHAARPLEGKPIPNPLLGLDSTGSGEDLKNVFPPEVAVFEPSKAEIAHTQKATLVCLATGFYPDHVELSWWVNGKEVHSGVCTDPQPLKEQPALNDSRYCLSSRLRVSATFWQNPRNHFRCQVQFYGLSENDEWTQDRAKPVTQIVSAEAWGRADCGITSASYHQGVLSATILYEILLGKATLYAVLVSALVLMAMVKRKDSRGRAKRSGSGATNFSLLKQAGDVEENPGPTSMALPVTALLLPLALLLHAARPEIVLTQSPGTLSLSPGERATLSCRASSSVPYIHWYQQKPGQAPRLLIYATSALASGIPDRFSGSGSGTDFTLTISRLEPEDFAVYYCQQWLSNPPTFGQGTKLELKRGGGGSGGGGSGGGGSEVQLVQSGAEVKKPGESLKLSCKGSGRTFTSYNMHWVRQMPGKGLEWMGAIYPLTGDTSYNQKSKLQVTISADKSISTAYLQWSSLKASDTAMYYCARSTYVGGDWQFDVWGKGTTVTVSSTREQKLISEEDGSGIQNPDPAVYQLRDSKSSDKSVCLFTDFDSQTNVSQSKDSDVYITDKCVLDMRSMDFKSNSAVAWSNKSDFACANAFNNSIIPEDTFFPSSDVPCDVKLVEKSFETDTNLNFQNLSVIGFRILLLKVAGFNLLMTLRLWSSRAKRSGSGVKQTLNFDLLKLAGDVESNPGPSRGHMTEYKPTVRLATRDDVPRAVRTLAAAFADYPATRHTVDPDRHIERVTELQELFLTRVGLDIGKVWVADDGAAVAVWTTPESVEAGAVFAEIGPRMAELSGSRLAAQQQMEGLLAPHRPKEPAWFLATVGVSPDHQGKGLGSAVVLPGVEAAERAGVPAFLETSAPRNLPFYERLGFTVTADVEVPEGPRTWCMTRKPGA
B3: 012417-J04 (protein)
chain: MALPVTALLLPLALLLHAARPLEGKPIPNPLLGLDSTGSGEDLKNVFPPEVAVFEPSKAEIAHTQKATLVCLATGFYPDHVELSWWVNGKEVHSGVCTDPQPLKEQPALNDSRYCLSSRLRVSATFWQNPRNHFRCQVQFYGLSENDEWTQDRAKPVTQIVSAEAWGRADCGITSASYHQGVLSATILYEILLGKATLYAVLVSALVLMAMVKRKDSRGRAKRSGSGATNFSLLKQAGDVEENPGPTSMALPVTALLLPLALLLHAARPSTVMTQSPDSLAVSLGERATINCKSSQSNSNDVAWYQQKPGQSPKVLIYFASNRYSGVPDRFSGSGYGTDFTLTISSLQAEDVAVYFCQQDYSSPLTFGAGTKLELKRADAGGGGSGGGGSGGGGSQIQLVQSGSELKKPGASVKVSCKASGYTFTNFGVNWVRQAPGKGLEWMGWINTYTGEPSYAQGFTGRFVFSLDASVSTAYLQISSLKAEDTATYFCTRRTNYYGTSYYYAMDYWGQGTTVTVSSAKTTTREQKLISEEDGSGIQNPDPAVYQLRDSKSSDKSVCLFTDFDSQTNVSQSKDSDVYITDKCVLDMRSMDFKSNSAVAWSNKSDFACANAFNNSIIPEDTFFPSSDVPCDVKLVEKSFETDTNLNFQNLSVIGFRILLLKVAGFNLLMTLRLWSSRAKRSGSGVKQTLNFDLLKLAGDVESNPGPSRGHMTEYKPTVRLATRDDVPRAVRTLAAAFADYPATRHTVDPDRHIERVTELQELFLTRVGLDIGKVWVADDGAAVAVWTTPESVEAGAVFAEIGPRMAELSGSRLAAQQQMEGLLAPHRPKEPAWFLATVGVSPDHQGKGLGSAVVLPGVEAAERAGVPAFLETSAPRNLPFYERLGFTVTADVEVPEGPRTWCMTRKPGA
B4: 012417-K04 (protein)
chain: MALPVTALLLPLALLLHAARPLEGKPIPNPLLGLDSTGSGEDLKNVFPPEVAVFEPSKAEIAHTQKATLVCLATGFYPDHVELSWWVNGKEVHSGVCTDPQPLKEQPALNDSRYCLSSRLRVSATFWQNPRNHFRCQVQFYGLSENDEWTQDRAKPVTQIVSAEAWGRADCGITSASYHQGVLSATILYEILLGKATLYAVLVSALVLMAMVKRKDSRGRAKRSGSGATNFSLLKQAGDVEENPGPTSMALPVTALLLPLALLLHAARPQIVLSQSPAILSASPGEKVTMTCRASSSVSYMHWYQQKPGSSPKPWIYATSNLASGVPARFSGSGSGTSYSFTISRVEAEDAATYYCQQWTFNPPTFGGGTRLEIKRTVAAGGGGSGGGGSGGGGSQAYLQQSGAELVRPGASVKMSCKASGYTFTSYNMHWVKQTPRQGLEWIGGIYPGNGDTSYNQKFKGKATLTVGKSSSTAYMQLSSLTSEDSAVYFCARYDYNYAMDYWGQGTSVTVSSASTREQKLISEEDGSGIQNPDPAVYQLRDSKSSDKSVCLFTDFDSQTNVSQSKDSDVYITDKCVLDMRSMDFKSNSAVAWSNKSDFACANAFNNSIIPEDTFFPSSDVPCDVKLVEKSFETDTNLNFQNLSVIGFRILLLKVAGFNLLMTLRLWSSRAKRSGSGVKQTLNFDLLKLAGDVESNPGPSRGHMTEYKPTVRLATRDDVPRAVRTLAAAFADYPATRHTVDPDRHIERVTELQELFLTRVGLDIGKVWVADDGAAVAVWTTPESVEAGAVFAEIGPRMAELSGSRLAAQQQMEGLLAPHRPKEPAWFLATVGVSPDHQGKGLGSAVVLPGVEAAERAGVPAFLETSAPRNLPFYERLGFTVTADVEVPEGPRTWCMTRKPGA

Tested on: target antigen-expressing cell line
Assay: Jurkat NFAT-GFP assay, coculture with target cell lines expressing the respective target antigen (summary Table 10A)
Assay type: cell-based, human
Design: key: The signs +/−, +, 2+ etc. after the name of the cell lines indicate the relative degree of positivity on the Jurkat-NFAT-GFP assay as measured by the % GFP positive cells; +: relative degree of positivity on the Jurkat-NFAT-GFP assay as measured by the % GFP positive cells; 2+: relative degree of positivity on the Jurkat-NFAT-GFP assay as measured by the % GFP positive cells
Settings: relative % GFP positive cells; for NFAT-GFP ASSAY Positive Cell lines: RAJI: SIR-expressing Jurkat-NFAT-GFP cells cocultured with RAJI
How it was run: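 Coculture of SIR-bearing Jurkat NFAT-GFP reporters with target cells, ~1:2 E:T, ~4–18 h. FACS quantified % GFP+ cells, ranked semi-quantitatively against parental Jurkat-NFAT-GFP.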

Molecule	NFAT-GFP ASSAY Positive Cell lines: U266 (SIR-expressing Jurkat-NFAT-GFP cells cocultured with U266)	NFAT-GFP ASSAY Positive Cell lines: RAJI
B1	U266 (+)	
B2		RAJI (+)
B3		RAJI (+)
B4		RAJI (+)

Source: patent publication US12269859B2, “Synthetic immune receptors and methods of use thereof” (Angeles Therapeutics, Inc., priority 2016, dated 2025)
